Publication PMC11993163, “Structure-function studies of a nucleoplasmin isoform from Plasmodium falciparum” (The Journal of Biological Chemistry, 2025)

B1: PfNPM NTD (Plasmodium falciparum nucleoplasmin N-terminal core domain, residues 1-98) (domain or fragment, UniProt C0H4U4 1-98, looked up)
chain: MFYGKVVKPDETVVPEVKDGYSVIHLSRACLNNPEHEGKIYVQVEDGNGCYNICCLQKNVCEDTPLDIFLMLDNDVKIKTSGSSNEVHIVGYYEVSFG
notes: PfNPM, nucleoplasmin isoform of Plasmodium falciparum, PlasmoDB PF3D7_0813300, UniProtKB C0H4U4, residues 1-98 of the 315-residue full length; Cloned into pET28a(+) between NcoI and XhoI with a noncleavable C-terminal hexa-histidine tag; Pentamer by crystal structure, SV-AUC and SAXS; also called PfNPM NTD (1-98); not shown: His6, C-terminal, kept
B2: PfNPM A1 (residues 1-110, up to A1 acidic tract) (domain or fragment, Plasmodium falciparum, UniProt C0H4U4 1-110, looked up)
chain: MFYGKVVKPDETVVPEVKDGYSVIHLSRACLNNPEHEGKIYVQVEDGNGCYNICCLQKNVCEDTPLDIFLMLDNDVKIKTSGSSNEVHIVGYYEVSFGQDNLDEDEDEFE
notes: PfNPM, nucleoplasmin isoform of Plasmodium falciparum, PlasmoDB PF3D7_0813300, UniProtKB C0H4U4, residues 1-110 (NTD and A1 acidic tract); pET28a(+) NcoI/XhoI, noncleavable C-terminal hexa-histidine tag; Pentamer by SV-AUC and SAXS; also called PfNPM (1-110); not shown: His6, C-terminal, kept
B3: PfNPM A3 (residues 1-170, up to A3 acidic tract) (domain or fragment, Plasmodium falciparum, UniProt C0H4U4 1-170, looked up)
chain: MFYGKVVKPDETVVPEVKDGYSVIHLSRACLNNPEHEGKIYVQVEDGNGCYNICCLQKNVCEDTPLDIFLMLDNDVKIKTSGSSNEVHIVGYYEVSFGQDNLDEDEDEFEDEFDNDEVRMLTKKNTLKNSLSNGISKRKKNLENNEDDETNVGRNDEDDDDEDDEDDEDE
notes: PfNPM, nucleoplasmin isoform of Plasmodium falciparum, PlasmoDB PF3D7_0813300, UniProtKB C0H4U4, residues 1-170 (NTD and acidic tracts A1 to A3); pET28a(+) NcoI/XhoI, noncleavable C-terminal hexa-histidine tag; Pentamer by SV-AUC, SAXS and cryo-EM 2D class averages; also called PfNPM (1-170); not shown: His6, C-terminal, kept

Experiments:
[1] = biological target: the molecule itself; assay: crystal structure; PfNPM NTD at 57 mg/ml, 0.2 M sodium malonate pH 5.0, 20% PEG3350; 3.25 Å, space group P3(1)21, five chains in the asymmetric unit
[2] = biological target: the molecule itself; assay: AUC; sedimentation velocity, Optima AUC, absorbance at 280 nm 0.2-0.5, continuous size distribution (SEDFIT); PfNPM proteins alone and their histone complexes
assembled H3/H4 tetramer [3] = biological target: T1, assembled H3/H4 tetramer (UniProt P84233 1-136; P62799 1-103); assay: ITC; details: both partners purified
T1 construct: core histone H4, codon-optimized construct in pET21a(+), gift of Dr Curtis A. Davey, expressed without a fusion tag; the species of the histones is told nowhere; copies: 2 + 2

assembled H2A/H2B dimer [4] = biological target: T2, assembled H2A/H2B dimer (UniProt P06897 1-130; P02281 1-126); assay: ITC; details: both partners purified
assembled H3/H4 tetramer [5] = biological target: T1, assembled H3/H4 tetramer; assay: AUC; details: both partners purified
assembled H2A/H2B dimer [6] = biological target: T2, assembled H2A/H2B dimer; assay: AUC; details: both partners purified

Binder | stoichiometry N [1] | stoichiometry N [2] | Kd (assembled H3/H4 tetramer [3]) [nM] | stoichiometry N (assembled H3/H4 tetramer [3]) | Kd (assembled H2A/H2B dimer [4]) [nM] | stoichiometry N (assembled H2A/H2B dimer [4]) | stoichiometry N (assembled H3/H4 tetramer [5]) | stoichiometry N (assembled H2A/H2B dimer [6])
B1 | 5 |  |  |  |  |  |  | 
B2 |  | 5 | 58.5 ± 1.76 | 1 | 1010 ± 68.6 | 1 | 1 PfNPM pentamer : H3/H4 tetramer | 1 PfNPM pentamer : H2A/H2B dimer
B3 |  | 5 | 38.9 ± 2.2 | 1 | 1000 ± 68.2 | 1 | 1 PfNPM pentamer : H3/H4 tetramer | 1 PfNPM pentamer : H2A/H2B dimer
